Test results from patent US20200024330A1.

Tests used:
Assay in all cases: cell-based or functional assay
[1] = target: HIV-1 MGRM-Chronic-B-017 Env (pseudovirus) (HIV-1)
[2] = target: HIV-1 Env of isolate MG RM-D-003 (subtype D) (HIV-1)
[3] = target: HIV-1 NL43 Env (pseudovirus) (HIV-1)
[4] = target: HIV-1 Env of isolate MGRM-C-002 (pseudovirus) (HIV-1 isolate MGRM-C-002, subtype C)
[5] = target: HIV-1 Env of isolate 92UG024 (subtype D) (HIV-1)
[6] = target: HIV-1 JR-CSF Env R476A (HIV-1 (isolate JR-CSF)) (UniProt P20871)
[7] = target: HIV-1 Env of isolate MGRM-C-014 (pseudovirus) (HIV-1 isolate MGRM-C-014, subtype C)
[8] = target: HIV-1 Env of isolate MG RM-AG-011 (HIV-1)
[9] = target: HIV-1 Env of isolate MG RM-D-011 (subtype D) (HIV-1)
[10] = target: HIV-1 Env of isolate MGRM-F1-010 (subtype F) (HIV-1)
[11] = target: HIV-1 Env of isolate MGRM-G-025 (HIV-1)
[12] = target: HIV-1 Env of isolate MGRM-F1-008 (subtype F) (HIV-1)
[13] = target: HIV-1 MGRM-Chronic-B-008 Env (pseudovirus) (HIV-1)
[14] = target: HIV-1 Env of isolate MGRM-F1-013 (HIV-1)
[15] = target: HIV-1 JR-CSF Env G471A (HIV-1 (isolate JR-CSF)) (UniProt P20871)
[16] = target: HIV-1 Env of isolate MGRM-C-015 (pseudovirus) (HIV-1 isolate MGRM-C-015, subtype C)
[17] = target: HIV-1 92RW020 envelope glycoprotein (Env) (HIV-1)
[18] = target: HIV-1 Env of isolate 92UG001 (HIV-1)
[19] = target: HIV-1 Env of isolate MGRM-A-007 (clade A), on pseudovirus (HIV-1)
[20] = target: HIV-1 Env of isolate MGRM-AE-001 (CRF01_AE), on pseudovirus (HIV-1)
[21] = target: HIV-1 Env of isolate MGRM-AG-001 (CRF_AG), on pseudovirus (HIV-1)
[22] = target: HIV-1 Env of isolate 93MW959 (HIV-1)
[23] = target: HIV-1 Env of isolate MGRM-C-012 (HIV-1)
[24] = target: HIV-1 Env of isolate MGRM-AE-007 (CRF01_AE), on pseudovirus (HIV-1)
[25] = target: HIV-1 Env of isolate MGRM-F1-023 (subtype F), on pseudovirus (HIV-1)
[26] = target: HIV-1 Env of isolate MGRM-F1-012 (subtype F), on pseudovirus (HIV-1)

Chain of 5345_I01 (PGT-137) (antibody) (VH): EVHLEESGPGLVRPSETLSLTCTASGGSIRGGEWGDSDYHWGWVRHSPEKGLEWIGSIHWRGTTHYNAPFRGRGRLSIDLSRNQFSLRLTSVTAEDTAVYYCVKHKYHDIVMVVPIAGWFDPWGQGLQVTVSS
Chain of 5345_I01 (PGT-137) (antibody) (VL): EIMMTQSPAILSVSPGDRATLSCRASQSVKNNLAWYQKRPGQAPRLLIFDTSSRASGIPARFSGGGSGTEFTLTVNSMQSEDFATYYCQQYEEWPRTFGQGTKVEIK

Substance	IC50, pseudovirus neutralization [1]	IC50 (µg/mL), pseudovirus neutralization [2]	IC50, pseudovirus neutralization [3]	IC50 (µg/mL) neutralization [4]	IC50 (µg/mL), pseudovirus neutralization [5]	Fold IC50 increase relative to wild-type [6]	IC50 (µg/mL) neutralization [7]	neutralization IC50 [8]	IC50 (µg/mL), pseudovirus neutralization [9]	IC50 (µg/mL), pseudovirus neutralization [10]	IC50, pseudovirus neutralization [11]	IC50 (µg/mL), pseudovirus neutralization [12]	IC50, pseudovirus neutralization [13]	IC50 [14]	Fold IC50 increase relative to wild-type [15]	IC50 (µg/mL) neutralization [16]	also measured
5141_B17 (PGT-126) (antibody)	> 50 µg/mL	0.021 µg/mL	> 50 µg/mL	0.011 µg/mL	> 50 µg/mL	1.5 fold	> 50 µg/mL	24.5 µg/mL	0.009 µg/mL	> 50 µg/mL	17.1 µg/mL	> 50 µg/mL	5.89 µg/mL	> 50 µg/mL	1.2 fold	3.14 µg/mL	IC50 [3]: > 10 µg/mL; IC80 [3]: > 10 µg/mL; IC90 [3]: > 10 µg/mL; IC95 [3]: > 10 µg/mL
5123_A06 (PGT-125) (antibody)	> 50 µg/mL	0.065 µg/mL	> 50 µg/mL	0.008 µg/mL	> 50 µg/mL	1.9 fold	> 50 µg/mL	> 50 µg/mL	0.008 µg/mL	> 50 µg/mL	> 50 µg/mL	0.361 µg/mL	> 50 µg/mL	> 50 µg/mL	1 fold	> 50 µg/mL	–
PGT-122 (antibody)	–	–	–	–	–	–	–	–	–	–	–	–	–	–	–	–	IC50 neutralization [17]: 0.0072 µg/mL
5345_I01 (PGT-137) (antibody)	–	–	–	–	–	–	–	–	–	–	> 50 µg/mL	–	–	–	–	–	IC50 [18]: > 50 µg/mL; IC50, single-round pseudovirus neutralization [19]: > 50 µg/mL; IC50, single-round pseudovirus neutralization [20]: > 50 µg/mL; IC50, single-round pseudovirus neutralization [21]: > 50 µg/mL; IC50 [22]: > 50 µg/mL; IC50 [23]: 0.102 µg/mL; IC50, single-round pseudovirus neutralization [24]: > 50 µg/mL; IC50, pseudovirus neutralization [25]: > 50 µg/mL; IC50, pseudovirus neutralization [26]: > 50 µg/mL
PGV04 (antibody)	–	–	–	–	–	–	–	–	–	–	–	–	–	–	–	–	IC50, pseudovirus neutralization [18]: 0.553 µg/mL; IC50 (µg/mL), pseudovirus neutralization [14]: 0.084 µg/mL
5114_A19 (PGT-128) (antibody)	–	–	–	–	–	0.7 fold	–	–	–	–	0.017 µg/mL	–	–	–	0.9 fold	–	IC50 [18]: > 50 µg/mL; IC50, single-round pseudovirus neutralization [19]: > 50 µg/mL; IC50, single-round pseudovirus neutralization [20]: 0.069 µg/mL; IC50, single-round pseudovirus neutralization [21]: 4.73 µg/mL; IC50 [22]: 0.045 µg/mL; IC50 [23]: 0.058 µg/mL; IC50, single-round pseudovirus neutralization [24]: > 50 µg/mL; IC50, pseudovirus neutralization [25]: 0.007 µg/mL; IC50, pseudovirus neutralization [26]: 0.007 µg/mL
4858_P08 (PGT-123) (antibody)	> 50 µg/mL	3.74 µg/mL	> 50 µg/mL	0.01 µg/mL	> 50 µg/mL	2 fold	1 µg/mL	> 50 µg/mL	0.012 µg/mL	0.016 µg/mL	0.046 µg/mL	> 50 µg/mL	0.01 µg/mL	0.08 µg/mL	1.3 fold	13.1 µg/mL	–
VRC01 (antibody)	–	–	–	–	–	–	–	–	–	–	–	–	–	–	–	–	neutralization IC50 [22]: 0.053 µg/mL; IC50, pseudovirus neutralization [14]: 0.17 µg/mL
